In this data set the target is T1, drRecJ R109A (Deinococcus radiodurans, UniProt D0EM60 1-705, R109A).
T1 sequence: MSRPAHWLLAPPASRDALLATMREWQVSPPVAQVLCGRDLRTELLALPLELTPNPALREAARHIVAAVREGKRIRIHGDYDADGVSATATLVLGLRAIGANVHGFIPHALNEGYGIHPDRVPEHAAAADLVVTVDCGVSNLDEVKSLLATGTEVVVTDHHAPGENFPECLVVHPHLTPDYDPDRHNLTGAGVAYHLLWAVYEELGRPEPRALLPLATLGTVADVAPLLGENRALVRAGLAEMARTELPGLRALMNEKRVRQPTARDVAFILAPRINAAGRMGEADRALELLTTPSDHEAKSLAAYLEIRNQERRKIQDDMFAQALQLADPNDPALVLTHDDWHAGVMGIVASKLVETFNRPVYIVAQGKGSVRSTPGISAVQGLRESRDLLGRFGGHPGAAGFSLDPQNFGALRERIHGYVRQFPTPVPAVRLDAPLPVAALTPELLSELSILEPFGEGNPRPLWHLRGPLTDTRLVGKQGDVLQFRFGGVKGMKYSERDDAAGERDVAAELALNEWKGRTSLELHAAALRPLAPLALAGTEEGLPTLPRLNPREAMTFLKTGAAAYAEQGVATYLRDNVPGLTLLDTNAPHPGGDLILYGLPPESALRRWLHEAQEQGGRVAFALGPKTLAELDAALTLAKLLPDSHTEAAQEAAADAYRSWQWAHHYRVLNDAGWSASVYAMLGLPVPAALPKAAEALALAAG
The data set can be described thus: EMSA; no Mn2+ added; EMSA: 10 nM 3'-6-FAM ssDNA, 50 mM Tris-HCl pH 7.5, 150 mM KCl, 0.1 mg/ml BSA, 1 mM DTT, 5% glycerol, 20 min at 30 C; 8% native PAGE in TBE; Hill fit. The following applies: protein: recombinant; tags: tag removed with TEV; label: 3'-6-FAM. (In general: In EMSA bound probe runs differently from free probe, usually more slowly.)

B1: KY11, 5'-P-dSpacer-(dA)20 (ssDNA)
DNA: AAAAAAAAAAAAAAAAAAAA
modifications: 5'-P-dSpacer (tetrahydrofuran abasic, 5'-dRP mimic) added before A1
On to B1, for which the binding signal worked out at 2 fold reduction.
